We go through four molecules from US7303752B2, “Hookworm vaccine” (The George Washington University, priority 2001, dated 2007).

“And” between values parts separate entries of the source, which are not always exact repeats. Equal entries are not always repeated.

Common to all, as to assay type: in vivo, dog
Assay [1] deals with A. caninum. Description: Canine vaccine trial HV-12, percutaneous challenge with 500 A. caninum L3. The conditions noted are these: for Adult Hookworm Worm Counts, Intestine, Male, Average / Adult Hookworm Worm Counts, Intestine, Female, Average / Adult Hookworm Worm Counts, Total, Average: group average; for Adult Hookworm Worm Counts, Intestine, Male, Average: AS03 control 64; for Adult Hookworm Worm Counts, Intestine, Female, Average: AS03 control 71; for Adult Hookworm Worm Counts, Total, Average: AS03 control 137. On the procedure: (§1) Brief Outline of Study Sections: Purpose bred beagles were randomized into five groups. […] groups were given one of three candidate vaccines: Ac-Cystatin, Ac-MTP-2 and Ac-GST in combination with the adjuvant ASO3. One group will serve as the negative control receiving the adjuvant only. Another group will be a positive control immunized with irradiated infective larvae. Each animal's specific antibody response was evaluated by direct ELISA using serum taken prior to the infective challenge. Cellular immune responses were assessed by peripheral (blood cells) lymphoproliferative responses to specific recombinant antigens and/or crude extract of infective larvae (L3) or adult worms. Local cellular immune responses were performed post mortem with lymphocytes extracted from mesenteric lymph nodes and, if considered, spleen. After immunization, animals were challenged with a known number dose of infective third stage larvae of A. caninum. Quantitative ova counts, used to evaluate worm burden, were determined from fecal samples collected three times per week. […] Tissues from different organs were examined macro and microscopically to assess any consequence of the vaccine, parasite or immune related lesions.
(§2) Administration of Test and Control Articles: The vaccines and adjuvant were administered intramuscularly (IM) […] beginning when the dogs are 62+/−4 days old. The vaccines are boosted at 21+/−3-day intervals. Four doses of the vaccines were given 21 days apart (days 0, 21, 42, and […]). The dogs were challenged percutaneously with 500 A. caninum L3, 14 days after the final vaccination.
Challenge Infection: Ancylostoma caninum larvae were cultured from the eggs collected in the feces of infected dogs. All hookworms in the infective challenge were approximately equal age (17±7 days). The species identity of the infective larva dose were validated using PCR DNA amplification and specific oligonucleotide primers. Overnight-collected feces of A. caninum-infected dogs were cultured, extracted and counted. All dogs were infected by the footpad method with the same dose (500+/−5%, of 3rd stage larvae of A. caninum. Larval challenge occurs on one of three consecutive days (at age 120+/−9 days) in 5 series. To minimize the difference in the infective L3 doses, each series included one dog from each (A-E group). […]
Adult Worm Count. Adult worms retained in the small and large intestines were collected. The small and large bowel will be collected and the small intestine will be suspended (the large bowel will not be suspended) in a container and incubated for at least two hours at 35° C. saline to collect the adult parasites. The adult worms were separated from the intestinal contents, counted, and preserved in formalin for subsequent count and analysis of sex, length and weight. Results and Analysis

Assay [2] deals with antigen-specific IgG1 and IgG2. Briefly: Antibody titers in HV-12 (Ac-CYS, Ac-MTP-2, Ac-GST in AS03, irradiated L3). The conditions noted are these: for Antibody titers, IgG1, GEOMEAN / Antibody titers, IgG2, GEOMEAN: geometric mean of group; for Antibody titers, IgG1 / Antibody titers, IgG2: individual dogs, after four immunizations, L3 Extract = group E dogs vaccinated with irradiated L3. As for the experimental part: as §1, §2
Serum Samples for Quantitative ELISA Antibody Titers: Animals treated with vaccines containing foreign proteins develop an immune response resulting in an increased level of high affinity serum antibodies that are directed against the antigen. […] White blood cells were collected for immunological measurements nine (9) days after the last boost and at the time of euthanasia to address the cellular immune response status and cytokine production upon in vitro restimulation of lymphocytes.

Assay [3] has as its system A. caninum. Briefly: Canine vaccine trial with Ac-MTP-1, subcutaneous challenge with 500 A. caninum L3. The text has this:
To test whether Ac-MTP-1 could be an effective vaccine, two groups of five (5) purpose-bred male beagles 8+1 wk of age were vaccinated either with the recombinant (expressed and isolated from Escherichia coli) fusion protein formulated with AS02A adjuvant, or adjuvant alone. The composition of AS02A, which has been successfully used in several malaria vaccine clinical studies, is described elsewhere (Lalvani et al, 1999; Bojang et al, 2001; Kester et al, 2001). Details of the animal husbandry and housing conditions were reported previously (Hotez et al, 2002a). The recombinant fusion protein containing a polyhistidine tag was purified from washed E. coli inclusion bodies that were solubilized in 6 M guanidine-HCl in 10 mM Tris HCl, pH 8.0. The solubilized inclusion bodies were processed in 5-10 ml batches by gel filtration chromatography (Sephacryl S-300, 26/60 gel filtration column [Amersham Pharmacia] pre-equilibrated in a buffer containing 0.1 NaH2PO4, 10 mM Tris-HCl and 6 M guanidine) at room temperature (flow rate of 2 ml/minute). Selected fractions containing Ac-MTP-1 (as determined by analysis on sodium dodecyl sulfate-polyacrylamide gel electrophoresis [SDS-PAGE]) were pooled, refolded according to the method of Singh et al (2001), and then loaded onto a 5 ml Hi-Trap IMAC column (Amersham Pharmacia) charged with ZnCl2 and equilibrated in 50 mM sodium phosphate pH 7.2, 1 M urea, and 0.5 M NaCl. The column was subsequently washed with 15 column volumes of equilibration buffer, and the bound protein was eluted with 50 mM sodium phosphate pH7.2, 1 M urea, 0.5 M NaCl, and 50 mM ethylenediamine tetraacetic acid (EDTA). Eluted samples containing protein were pooled and dialyzed against 10 mM Tris-HCl pH 8.0, 5% glycerol, 1 mM dithiothreitol, and 2 mM EDTA.
The recombinant Ac-MTP-1 fusion protein was mixed with SBAS2 adjuvant and administered to each of five dogs in four intramuscular injections on days 1, 4, 43, and 50. […] Antigen-specific canine IgG2 and IgE antibodies were measured by indirect enzyme-linked immunosorbent assay (ELISA) as described previously (Hotez et al, 2002a). […] Quantitative hookworm egg counts (McMaster technique) on each dog were obtained 3 days per wk beginning on day 12 post-infection (PI). Five wk post-infection, the dogs were killed by intravenous barbituate injection, and the adult hookworms were recovered and counted from the small and large intestines at necropsy (Hotez et al., 2002c). The statistical significance of differences between adult hookworm burdens was determined using the Anova test, as were differences in hematological parameters and in quantitative hookworm egg counts. Comparisons of hookworm burden and egg counts with antibody titers were measured using Spearman rank order (nonparametric) correlations. […]

B1: Ac-GST: A. caninum glutathione S transferase, SEQ ID NO: 77; Pichia pastoris expressed (protein, listed as Ancylostoma caninum)
chain: MVHYKLTYFNGRGLGECARQLFALADQQYEDIRVTHEDFPEIKPNLPFGQLPLLNEDGKELAQSNAINRYLARKFGFAGKTPFEEALVDSLADQMTDYRVEIKPFVYTAYGHQKFGDLETLKKDVMLPARDKFLGFITKFLKNNPSGFLVGDSVTWIDLLLAEHASDIQSKVPEYLEGFPEVKAHMEKVRSIPKLKKWIETRPETHF
Turning to B1, in assay [1] (dog, in vivo, listed as GST), the “worm burden reduction relative to AS03 controls” value is 40% and 41%. In assay [1], the “Adult Hookworm Worm Counts, Intestine, Male, Average” value stood at 34; the “Adult Hookworm Worm Counts, Intestine, Female, Average” value worked out at 44; the “Adult Hookworm Worm Counts, Total, Average” value is 83. For the same molecule, in assay [1] (individual dogs, listed as GST), the “Adult Hookworm Worm Counts, Colon, Female” value was 0 (2×) and 3 and 4 and 5; the “Adult Hookworm Worm Counts, Colon, Male” value was 0 (2×) and 4 and 7 and 2; the “Adult Hookworm Worm Counts, Intestine, Female” value was 81 and 26 and 36 (2×) and 41; the “Adult Hookworm Worm Counts, Intestine, Male” value is 50 and 34 and 19 and 33 (2×). In addition, the “Adult Hookworm Worm Counts, Total” value in assay [1] (individual dogs, listed as GST) is 131 and 67 and 55 and 80 and 81. Also, in assay [2], the “Antibody titers, IgG1, GEOMEAN” value was 13,500; the “Antibody titers, IgG2, GEOMEAN” value is recorded as 50,452; the “Antibody titers, IgG1” value is reported as 13,500. In assay [2] (listed as GST), the “Antibody titers, IgG2” value was 40,500 (4×) and 121,500.

B2: Ac-CYS: A. caninum cystatin antigen, SEQ ID NO: 100; Pichia pastoris expressed (protein, listed as Ancylostoma caninum)
chain: MPYLAFIVALLACTVMSGHGQMTGGLTKQDPNDPEHMARAWKAAKGINEDASNAGPYHMIPIKIVKAESQVVAGVRYIFEVLFGESTCKKGHMAATELSASNCELKEGGNRALYKVELWEKPWENFEQFNVEKIRNVAAGEQI
With B2, in assay [1], the “Adult Hookworm Worm Counts, Intestine, Male, Average” value stood at 49; the “Adult Hookworm Worm Counts, Intestine, Female, Average” value was 56; the “Adult Hookworm Worm Counts, Total, Average” value is given as 107. Also, in assay [1] (individual dogs), the “Adult Hookworm Worm Counts, Colon, Female” value is 0 (3×) and 5 and 2; the “Adult Hookworm Worm Counts, Colon, Male” value was 0 (3×) and 1 and 3; the “Adult Hookworm Worm Counts, Intestine, Female” value is 56 and 85 and 29 and 67 and 41; the “Adult Hookworm Worm Counts, Intestine, Male” value is 44 and 81 and 38 and 48 and 36. In assay [1] (individual dogs), the “Adult Hookworm Worm Counts, Intestine, Unk. Sex” value is reported as 1; the “Adult Hookworm Worm Counts, Total” value is 100 and 167 and 67 and 124 and 79. Moreover, in assay [2], the “Antibody titers, IgG1, GEOMEAN” value is listed as 121,500; the “Antibody titers, IgG2, GEOMEAN” value was 364,500; the “Antibody titers, IgG1” value is 121,500 (3×) and 40,500 and 364,500; the “Antibody titers, IgG2” value is 364,500 (3×) and 121,500 and 1,093,500.

B3: Ac-MTP-2: A. caninum astacin protease antigen, SEQ ID NO: 42; Pichia pastoris expressed (protein, listed as Ancylostoma caninum)
chain: MKYFVLCFCAFFVVNADEEDDLPRNPLWDAYKDDNGKYVIPYVINGSYGEEKKVLFEMMDEIDKNTCVRFIPRSTEQDYIEIVNRLGEGTGAVVGKPGGKSIVLLESSKILNDPTPAPVMQTLMKIIGLPPEHIRPERKDHIKIHWENIEKGYEAFFALSSVKPDPYGIPYDYYSIMHYKKDAFAKPGTITMETLDKRYQDIIGNQEKPSKLDYKKICTKYKCDICMGEKMKY
In the case of B3, in assay [1], the “Adult Hookworm Worm Counts, Intestine, Male, Average” value is 61; the “Adult Hookworm Worm Counts, Intestine, Female, Average” value was 60; the “Adult Hookworm Worm Counts, Total, Average” value worked out at 132. Moreover, in assay [1] (individual dogs), the “Adult Hookworm Worm Counts, Colon, Female” value is 10 and 3 and 2 and 15 and 0; the “Adult Hookworm Worm Counts, Colon, Male” value was 11 and 2 and 1 (2×) and 9; the “Adult Hookworm Worm Counts, Intestine, Female” value was 71 and 51 and 41 and 65 and 73; the “Adult Hookworm Worm Counts, Intestine, Male” value was 64 (2×) and 49 and 41 and 87. Moreover, the “Adult Hookworm Worm Counts, Total” value in assay [1] (individual dogs) is 156 and 105 and 85 and 153 and 161. Also, in assay [2], the “Antibody titers, IgG1, GEOMEAN” value is given as 62,850; the “Antibody titers, IgG2, GEOMEAN” value was 121,500; the “Antibody titers, IgG1” value was 121,500 (2×) and 40,500 (3×); the “Antibody titers, IgG2” value is 364,500 and 121,500 (3×) and 40,500.

B4: Ac-MTP-1: A. caninum L3 astacin zinc metalloprotease, SEQ ID NO: 16 (also listed as SEQ ID NO: 40); E. coli fusion protein (protein, listed as Ancylostoma caninum)
chain: MRVLLLLLLLSICASAGFLDTKFGQKIKKTLDKIKAVLNGTALIAIREKFIRLREKIKAKLTLSPARKAILDEVMKHIKMIKKDKIQEKGDSIDEINEKSAIGQLLYQGDIVLTEKQAQQITEDIENDKGDREKRQAFRDRNYPRTLWSKGVYFHFHRNATPEVRSVFVKGAKLWMKDTCIDFFESNSAPDRIRVFKENGCWSYVGRLGGEQDLSLGEGCQSVGTAAHEIGHAIGFYHTHARHDRDNFITFNAQNVKPDWLDQFTLQTPATNENYGITYDYGSIMHYGANSASQNGRPTMVPHDPKYVETLGINKHYDCTKNCDPATSAQCKMGGFPHPRDCTRCICPSGYGGKLCDQKPAGCGSIYQATNQYQTLHDEIGDKRAGQRPREDMDFCYYWITAPKGSKIEIKIAGLSQGAAVEGCQYWGVEIKTHADQRLTGYRFCAPEDVGVRLVSNFNIVPIITYNIFYATYVDIQYRIVGDNVGGPMPQPQPNSNCVDNEQCATLVRTKNFCQSRFFTSSVKRGLCPKSSGFCR
Take B4: the “reduction in worm burden, dog with highest versus dog with lowest antibody titer” value in assay [3] (dog, in vivo) was found to be 50%. For the same molecule, in assay [3] (single vaccinated dog), the “hookworms recovered from the dog with the highest antibody titer” value stood at 98 hookworms and the “hookworms recovered from the dog with the lowest antibody titer” value was 189 hookworms. Besides, the “number of adult hookworms recovered (mean+standard deviation)” value in assay [3] (vaccinated dogs, 5 wk after 500 L3 s.c., control dogs 143+30, not significant) was 154+34 hookworms.
